Columns and labels:
[1] = target: human ICOS (human) (UniProt Q9Y6W8); assay: Biacore (SPR), human ICOS; format not described
[2] = target: cynomolgus ICOS (cynomolgus); assay: Biacore (SPR), cyno ICOS; format not described
Sequence of cynomolgus ICOS (cynomolgus) (A0A2K5 entry or part of it limits assumed): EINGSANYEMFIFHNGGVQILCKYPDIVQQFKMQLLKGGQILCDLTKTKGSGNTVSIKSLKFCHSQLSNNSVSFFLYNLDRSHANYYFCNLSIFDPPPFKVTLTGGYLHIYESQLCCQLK

Sequence of human ICOS (human) (Q9Y6W8 21-140 limits assumed): as the sequence (A0A2K5 entry or part of it limits assumed) above, with R81H counted along it

B1: murine anti-human ICOS mAb clone 314.8 (antibody, from another filing, V domains shown)
VH: QVQLQQPGTELMKPGASVKLSCKASGYTFTTYWMHWVKQRPGQGLEWIGEIDPSDSYVNYNQNFKGKATLTVDKSSSTAYIQLSSLTSEDSAVYFCARSPDYYGTSLAWFDYWGQGTLVTVST
VL: DIVMTQAAPSVPVTPGESVSISCRSSKSPLHSNGNIYLYWFLQRPGQSPQLLIYRMSNLASGVPDRFSGSGSGTTFTLKISRVEAEDVGVYYCMQHLEYPYTFGGGTKLEIK
B1 gave a Kd [1] of 17 nM and a Kd [2] of 9.3 nM.
